Data reported in US20170100463A1, “METHOD TO IMPROVE SAFETY AND EFFICACY OF ANTI-CANCER THERAPY” (CLS Therapeutics Limited, priority 2014, published 2017).

How the values were obtained:
in vivo = assay: in vivo
Text: Group I: control group (no Doxorubicin, no DNase); • 2.
Animals were monitored during 2 weeks from the beginning of experiment for survival and weight.

[1] = Cyclophosphamide-induced neutropenia, white blood cell count; assay type: in vivo, BALB/C mice; conditions: mice, cyclophosphamide 200 mg/kg IP Day 1; for early phase decline in WBC count (FIG. 3): DNase I 25 mg/kg/day IV or GM-CSF 200 μg/kg/day SC Days 2-5
Method: 30 female 10-12 week old BALB/C mice (obtained from Rappolovo animal house) were used in this experiment. […] On Day 1, neutropenia was induced by a single IP injection of 200 mg/kg cyclophosphamide (Cyclophosphanum-LANS) in 200 μl of WFI. Starting on Day 2, mice were then treated as follows: • 1. Group I (n=10): control (no treatment); • 2. Group II (n=10): animals were treated with human recombinant DNase I (Pharmsynthez OJSC) at 25 mg/kg/day (50000 KU/kg/day) dose injected IV on Days 2-5; • 3. Group III (n=10): animals were treated with human recombinant GM-CSF (Neostim, Pharmsynthez OJSC) at 200 μg/kg/day dose injected subcutaneously (SC) on Days 2-5.
The white blood cell count (WBC) in each animal was monitored daily during the 10 day experiment using blood cell counter.

L1210 leukemia cells = assay: Survival of mice transplanted with L1210 leukemia cells; assay type: in vivo, DBA2 mice; conditions: AraC 1000 mg/kg IP Days 2, 5, 8; DNase II 15 or 45 mg/kg/day IP; alone or combined
Method: Treatment with DNase and AraC was initiated on Day 1 of experiment. Cytosine arabinoside (AraC; Cytosar; Pfizer) was injected IP at a dose of 1000 mg/kg on Days 2, 5 and 8. The injected doses were considered adequate for the model and injection route based on prior experiments (13-14). DNase II (Wornington) was injected IP at doses of 15 mg/kg/day and 45 mg/kg/day on Days 1, 3, 5, 8, 10, 12, 15, 17, and 19.
Animals were randomized into 6 experimental groups of 6 mice per group as follows: • 1. Group I: negative control (no treatment); • 2. Group II: positive control (animals treated with AraC); • 3. Group III: animals treated with AraC and 15 mg/kg DNase; • 4. Group IV: animals treated with AraC and 45 mg/kg DNase; • 5. Group V: animals treated with 15 mg/kg DNase, no AraC; • 6. Group VI: animals treated with 45 mg/kg DNase, no AraC.

[2] = Gastrointestinal lesions after Etoposide/5-FU chemotherapy in rats; assay type: in vivo, male Wistar rats; conditions: for Total number of lesions per group: 16 rats; for Total number of lesions per group / Number of lesion free animals (percent) / Median number of lesions / Number of lesion free animals: Etoposide 200 mg/kg + 5-FU 400 mg/kg per os; for Total number of lesions per group / Median number of lesions: 36 hours; for Number of lesion free animals: of 16 rats
Method: Animals were divided into 4 groups of 16 rats each. Two hours after the Etoposide/5-FU challenge, rats were treated as follows: • 1. Group I: IV placebo (WFI); • 2.

[3] = Myocardial necrosis area in deceased rats challenged with doxorubicin; assay type: in vivo; conditions: doxorubicin 7.5 mg/kg, DNase I 15 mg/kg daily IP vs placebo
Method: FIG. 1 is a bar graph showing myocardial necrosis area in deceased rats challenged with sub-lethal IV doses of doxorubicin (7.5 mg/kg) and either daily IP injections of human recombinant DNase I (15 mg/kg) (black bar) or daily IP injections of placebo (WFI) (diagonal hatched bar). Serial myocardium microscopy samples from each heart were analyzed using an automated video analyzer to quantify the necrotic areas. The sum of necrotic area (Sna; nm^2) was calculated as a sum of necrotic areas in 30 serial slides from each individual autopsied heart (n=3 for DNase I-treated rats—black bar; n=5 for placebo-treated rats—diagonal hatched bar).
The hearts deceased rats challenged with sub-lethal doses of doxorubicin (7.5 mg/kg) from (Groups IV and V) were autopsied. Serial myocardium microscopy samples from each heart were analyzed using an automated video analyzer to quantify the necrotic areas. The sum of necrotic area (Sna; nm^2) was calculated as a sum of necrotic areas in 30 serial slides from each individual autopsied heart (n=3 for Group IV (FIG. 1, black bars); n=5 for Group V (FIG. 1, diagonal hatched bars)). Group IV received daily IP injections of human recombinant DNase I at 15 mg/kg dose, while Group V received daily IP injections of placebo (WFI).

Erlich carcinoma cells = assay: Erlich carcinoma ascites tumor with radiotherapy: survival and body weight
Method: Radiotherapy was performed using a cobalt-60 teletherapy machine. The abdominal fields of the mice were treated by external irradiation. The fractionation was 200 cGy per day for 5 days. Mice were divided into 6 groups treated as follows: Group 1: radiotherapy only (external irradiation 200 cGy per day for 5 days); Group 2: recombinant human DNAse I (Pharmsynthez) 20 mg/kg/day administered intramuscularly in 2 daily doses; Group 3: recombinant human DNAse I (Pharmsynthez) 40 mg/kg/day administered intramuscularly in 2 daily doses; Group 4: radiotherapy (external irradiation 200 cGy per day for 5 days) plus recombinant human DNAse I (Pharmsynthez) 20 mg/kg/day administered intramuscularly in 2 daily doses; Group 5: radiotherapy (external irradiation 200 cGy per day for 5 days) plus recombinant human DNAse I (Pharmsynthez) 40 mg/kg/day administered intramuscularly in 2 daily doses. Group 6 was a control group receiving placebo (water for injection).

[4] = Doxorubicin 7.5 mg/kg/day IV 5 days + DNase I 15 mg/kg/day IP (Group IV) or placebo (Group V)
[5] = Doxorubicin 10.0 mg/kg/day IV 5 days + DNase I 15 mg/kg/day IP (Group VI) or placebo (Group VII)
[6] = rats, Doxorubicin 7.5 mg/kg/day IV 5 days + DNase I 15 mg/kg/day IP (Group IV) or placebo (Group V), monitored 2 weeks
[7] = rats, Doxorubicin 10.0 mg/kg/day IV 5 days + DNase I 15 mg/kg/day IP (Group VI) or placebo (Group VII), monitored 2 weeks
[8] = Group 2: DNAse I 20 mg/kg/day intramuscularly, no radiotherapy
[9] = Group 3: DNAse I 40 mg/kg/day intramuscularly, no radiotherapy
[10] = Group 4: radiotherapy 200 cGy per day for 5 days plus DNAse I 20 mg/kg/day intramuscularly
[11] = Group 5: radiotherapy 200 cGy per day for 5 days plus DNAse I 40 mg/kg/day intramuscularly

With `COc1cccc2c1C(=O)c1c(O)c3c(c(O)c1C2=O)C[C@@](O)(C(=O)CO)C[C@@H]3O[C@H]1C[C@H](N)[C@H](O)[C@H](C)O1` [Doxorubicin, reference compound] the “Median survival of deceased rats” value (in vivo; [4]) was 8.2 ± 1.0 days, the “Median survival of deceased rats” value (in vivo; [5]) was 6.6 ± 0.9 days and the “Median survival of deceased rats” value (in vivo; male, Wistar, rat, in vivo) was 12 ± 2.1 days. The “Number of dead/out of total in group” value (in vivo; male, Wistar, rat, in vivo) was 3/6, the LD50 at 2 weeks (in vivo; male, Wistar, rat, in vivo, iv) was 3.75 mg/kg and the “Number of dead/out of total in group” value (in vivo; [6]) was 5/6. The “Number of dead/out of total in group” value (in vivo; [7]) was 6/6.

For “GM-CSF: human recombinant GM-CSF (Neostim, Pharmsynthez OJSC)”, the “early phase decline in WBC count (FIG. 3)” value [1] was “not able to prevent it”.

With `Nc1ccn([C@@H]2O[C@H](CO)[C@@H](O)[C@@H]2O)c(=O)n1` [AraC, cytosine arabinoside] the “survival after implantation of L1210 leukemia cells (FIG. 4)” value (L1210 leukemia cells) was “better survival rates versus non-treated mice”.

With `CN/C(=N/CCSCc1nc[nH]c1C)NC#N` [Cimetidine, cimetidine, reference compound] the “Total number of lesions per group” value ([2]; treatment 50 mg/kg IV) was 40, the “Number of lesion free animals (percent)” value ([2]; treatment 50 mg/kg IV) was 62.5% and the “Median number of lesions” value ([2]; treatment 50 mg/kg IV) was 2.5 ± 1.1. For the same molecule, the “Number of lesion free animals” value ([2]; treatment 50 mg/kg IV) was 10.

B1: human recombinant DNase I: human recombinant DNase I (Pharmsynthez OJSC), deoxyribonuclease enzyme (protein, UniProt P24855 23-282, looked up)
Deoxyribonuclease-1: LKIAAFNIQTFGETKMSNATLVSYIVQILSRYDIALVQEVRDSHLTAVGKLLDNLNQDAPDTYHYVVSEPLGRNSYKERYLFVYRPDQVSAVDSYYYDDGCEPCGNDTFNREPAIVRFFSRFTEVREFAIVPLHAAPGDAVAEIDALYDVYLDVQEKWGLEDVMLMGDFNAGCSYVRPSQWSSIRLWTSPTFQWLIPDSADTTATPTHCAYDRIVVAGMLLRGAVVPDSALPFNFQAAYGLSDQLAQAISDHYPVEVMLK
For B1, the “Total number of lesions per group” value ([2]; treatment 1.5 mg/kg IV) was 60, the “Total number of lesions per group” value ([2]; treatment 50 mg/kg IV) was 16 and the “achieved protection against chemotherapy-induced ulceration” value ([2]; DNase I 50 mg/kg compared to 1.5 mg/kg DNase I and 50 mg/kg cimetidine) was “significantly superior”. The “Number of lesion free animals (percent)” value ([2]; treatment 1.5 mg/kg IV) was 31.25%, the “Median number of lesions” value ([2]; treatment 1.5 mg/kg IV) was 3.75 ± 1.53 and the “Number of lesion free animals (percent)” value ([2]; treatment 50 mg/kg IV) was 75%. The “Median number of lesions” value ([2]; treatment 50 mg/kg IV) was 1.00 ± 0.69, the “Number of lesion free animals” value ([2]; treatment 1.5 mg/kg IV) was 5 and the “Number of lesion free animals” value ([2]; treatment 50 mg/kg IV) was 12. For the same molecule, the “macroscopic appearance of stained stomach (FIG. 2A)” value ([2]; oral Etoposide 200 mg/kg and 5-FU 400 mg/kg followed by IV DNase I 50 mg/kg) was “does not have any macroscopic abnormalities”, the “neutropenia induced by cyclophosphamide (WBC, FIG. 3)” value ([1]; DNase I 25 mg/kg/day IV Days 2-5) was “ameliorates neutropenia” and the “early phase decline in WBC count (FIG. 3)” value [1] was “prevents the typical early phase decline in WBC count”. For the same molecule, the “Median survival of deceased rats” value (in vivo; [4]) was 10.3 ± 1.4 days, the “Median survival of deceased rats” value (in vivo; [5]) was 6.2 ± 1.0 days and the “Body weight of surviving rats, Baseline” value (in vivo; rat, in vivo) was 168 ± 4 grams. The “Body weight of surviving rats, Day 4” value (in vivo; rat, in vivo) was 160 ± 6 grams, the “Body weight of surviving rats, Day 7” value (in vivo; rat, in vivo) was 158 ± 5 grams and the “Body weight of surviving rats, Day 14” value (in vivo; rat, in vivo) was 164 ± 6 grams. For the same molecule, the “Median survival of deceased rats” value (in vivo; rat, in vivo) was 7 days, the “Number of dead/out of total in group” value (in vivo; rat, in vivo) was 1/6 and the “Number of dead/out of total in group” value (in vivo; [6]) was 3/6. For the same molecule, the “Number of dead/out of total in group” value (in vivo; [7]) was 6/6, the “myocardial necrosis area (sum of necrotic area, FIG. 1)” value [3] was “decreases the myocardial necrosis area” and the “% Survival on Day 16” value (Erlich carcinoma cells; [8]) was 40%. For the same molecule, the “Change in Median Body Weight on Day 16” value (Erlich carcinoma cells; [8]) was “+2 g”, the “% Survival on Day 16” value (Erlich carcinoma cells; [9]) was 50% and the “Change in Median Body Weight on Day 16” value (Erlich carcinoma cells; [9]) was “+1.5 g”. For the same molecule, the “% Survival on Day 16” value (Erlich carcinoma cells; [10]) was 80%, the “Change in Median Body Weight on Day 16” value (Erlich carcinoma cells; [10]) was 0 and the “% Survival on Day 16” value (Erlich carcinoma cells; [11]) was 100%. The “Change in Median Body Weight on Day 16” value (Erlich carcinoma cells; [11]) was “+1.5 g”.
